From publication PMC2742380
“And” between values parts separate entries of the source, which are not always exact repeats. Equal entries are not always repeated.

Assays:
[1] = target: His6-PA: WT PA with a carboxy-terminal six histidine tag, 63-kDa form (Bacillus anthracis); assay: negative-stain electron microscopy
[2] = target: Protective antigen (PA), wild type, 63-kDa portion of trypsin-nicked PA (Bacillus anthracis); assay: native MS
[3] = target: Protective antigen (PA), wild type, 63-kDa portion of trypsin-nicked PA (Bacillus anthracis); assay: negative-stain electron microscopy

Chain of Protective antigen (PA), wild type, 63-kDa portion of trypsin-nicked PA (Bacillus anthracis) (P13423 197-764 limits assumed): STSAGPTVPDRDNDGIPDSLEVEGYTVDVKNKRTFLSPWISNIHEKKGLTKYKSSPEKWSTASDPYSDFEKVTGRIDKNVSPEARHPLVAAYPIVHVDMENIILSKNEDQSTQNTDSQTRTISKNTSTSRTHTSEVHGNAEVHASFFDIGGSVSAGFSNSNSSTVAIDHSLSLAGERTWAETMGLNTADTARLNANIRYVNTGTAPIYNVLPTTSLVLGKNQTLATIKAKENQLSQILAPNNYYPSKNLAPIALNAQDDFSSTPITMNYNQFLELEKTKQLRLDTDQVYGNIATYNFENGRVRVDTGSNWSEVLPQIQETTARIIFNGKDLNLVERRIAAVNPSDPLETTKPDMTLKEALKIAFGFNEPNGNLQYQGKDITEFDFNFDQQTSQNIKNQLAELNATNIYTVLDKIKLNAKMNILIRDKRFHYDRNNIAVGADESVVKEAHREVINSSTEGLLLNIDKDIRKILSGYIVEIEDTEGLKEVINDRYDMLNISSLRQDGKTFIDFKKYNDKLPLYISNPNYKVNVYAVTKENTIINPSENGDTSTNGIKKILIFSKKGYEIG

His6-PA: WT PA with a carboxy-terminal six histidine tag, 63-kDa form (domain or fragment)
percent of oligomers that are heptamers [1]: 74% | percent of oligomers that are octamers [1]: 26%

LFN, amino-terminal domain of lethal factor (LF residues 1-263) (domain or fragment)
stoichiometry N (LFN per PA heptamer) [2]: 2 | stoichiometry N (LFN per PA tetramer) [2]: 2

Protective antigen (PA), wild type, 63-kDa portion of trypsin-nicked PA (domain or fragment)
stoichiometry N [3]: 7 and 8
